The values below come from patent US20250346678A1 (published 2025).

Experiment [1] deals with T1, human PD-L1 IgG1 Fc chimera (human, UniProt Q9NZQ7 19-238). The experiment in a line: ELISA.
The target in experiment [2] is T1, human PD-L1 IgG1 Fc chimera. The experiment in a line: competition ELISA; PD-1/PD-L1 blocking. For orientation: ELISA stands for enzyme-linked immunosorbent assay.
For experiment [3], the target named is T2, human OX40 IgG1 Fc chimera (human, UniProt P43489 29-214).
T2 chain: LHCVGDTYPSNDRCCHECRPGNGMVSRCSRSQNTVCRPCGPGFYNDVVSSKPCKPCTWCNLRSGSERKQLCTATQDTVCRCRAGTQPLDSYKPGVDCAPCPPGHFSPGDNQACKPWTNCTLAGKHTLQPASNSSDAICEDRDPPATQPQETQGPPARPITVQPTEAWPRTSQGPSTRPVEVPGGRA
The experiment in a line: ELISA.

T1 sequence (Q9NZQ7 19-238, change not shown): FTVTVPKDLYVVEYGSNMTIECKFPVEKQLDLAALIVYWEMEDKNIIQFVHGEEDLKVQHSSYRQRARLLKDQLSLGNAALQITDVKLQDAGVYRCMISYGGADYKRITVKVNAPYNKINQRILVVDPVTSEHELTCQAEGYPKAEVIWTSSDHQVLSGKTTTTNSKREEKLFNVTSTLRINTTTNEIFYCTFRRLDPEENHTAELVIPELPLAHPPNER

B1: anti-PD-L1 antibody clone 6 (antibody, V domains shown)
VH: QVQLVQSGAEVKKPGSSVKVSCKASGGTFRRYSISWVRQAPGQGLEWMGGIIPVFGAAKYAQKFQGRVTITADEFTSTAYMELSSLTSEDTAVYYCALSGDSDAFDIWGQGTMVTVSS
VL: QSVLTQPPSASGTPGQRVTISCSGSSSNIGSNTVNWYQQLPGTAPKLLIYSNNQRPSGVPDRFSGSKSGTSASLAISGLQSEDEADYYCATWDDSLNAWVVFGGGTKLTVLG
What is called EC50 is the concentration needed to bring the measured effect to its halfway point. Read a low EC50 as a more potent agent. One may read the IC50 as the midpoint of a concentration-inhibition curve. For the molecule B1, the EC50 in experiment [1] turned out to be 0.082 nM. In experiment [2], this molecule returned an IC50 of 11.4 nM.

B2: anti-OX40 antibody clone B19 (antibody, V domains shown)
VH: EVQLVESGGGLVKPGGSLRLSCAASGFTFSSYSMNWVRQAPGKGLEWVSSISSSSRYIYYADSVKGRFTISRDNAKNSLYLQMNSLRAEDTAVYYCARQNEDVAFGIWGQGTMVTVSS
VL: SYVLTQPPSVSVTPGKTARIACGGNNLESKIVSWYQQKPGQAPVLVIFYDTDRPSGISERFSGSNSGNTATLTISRVEAGDEADYYCQVWDSNSDHVIFGGGTKLTVLG
Turning to B2, the EC50 in experiment [3] turned out to be 1.22 nM.

B3: anti-PD-L1 antibody clone 32 (antibody, V domains shown)
VH: QVQLVQSGAKVKKPGSSVKVSCKASGGTFSSYAISWVRQAPGQGLEWMGRIIPILGIANYAQKFQGRVTITADKSTSTAYMELSSLRSEDTAVYYCARVVPGYSYGPFDYWGQGTTVTVSS
VL: QSALTQPASVSGSPGQSITISCTGTSNDVGSYNSVSWYQQHPGKAPKLVIYEVANRPSGVPDRFSGSKSGNTASLTISGLQAEDEADYYCSSYTSSSTLVFGGGTKLTVLG
B3 gave an EC50 in experiment [1] of 0.0348 nM. This lies in the picomolar range.
